Literature values as cited in paper PMC7590224.

System: hLarp7 xRRM domain (human)
Settings: No direct binding assays in this paper (only in vivo E. coli suppressor tRNA reporter assays, left out); conditions of the cited Kd values not given

Row | Substance | Kd
1 | 7SK RNA stem-loop 4 (SL4) | 129 nM
2 | 7SK SL4 U311A | 51 nM
